First the molecules themselves.
B1: CPEB3 Ribozyme (parent)
chain: UAACAGGGGGCCACAGCAGAAGCGUUCACGUCGCAGCCCCUGUCAGAUUCUGGUGAAUCUGCGAAUUCUGCUGUAUAUCUC

In the series the parent is B1. In words: self-cleavage, relative activity (ratio to wild type); higher = more cleavage; in vitro, sequencing. The method, boiled down:
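CPEB3 self-cleaving ribozyme mutant libraries were made by rounds of error-prone PCR, barcoded, and transcribed in vitro with T7 RNA polymerase for 5 hours at 37°C. Cleavage occurred during transcription and a 15 min DNase I step before EDTA stop. RNAs were reverse transcribed with template switching and Illumina-sequenced, with DNA sequencing mapping barcodes to variants. Relative activity is the variant's cleaved/total read fraction divided by wild type's (minimum 5 reads), averaged across three batches.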
Turning to U1C A18U, the self-cleavage worked out at 0.36. For U1C A18C, the self-cleavage amounted to 1.09. For the variant U1C A18G, the self-cleavage worked out at 0.48.

Take A2C G9U: the self-cleavage came to 0.21. Under U1G A47G stands 1.16; under U1C C79U, 0.8. As for U1C C79A, the self-cleavage worked out at 1.03. The value for U1A C29U was 0.52; that for U1G U72A was 0.71. On to U1G U72C, for which the self-cleavage came to 1. On to U1G G8C, for which the self-cleavage worked out at 0.59. Consider A2C A65G, for which the self-cleavage amounted to 0.46. The value for A2C U25C was 0.49. As to U1C G30C, the self-cleavage came out at 0.14. Under U1G U26C stands 0.4; under U1C U43C, 0.57.

In the case of U1C U43A, the self-cleavage came out at 1.1. As to U1A A75U, the self-cleavage was 1.14.

In the case of U1A A75G, the self-cleavage was determined as 0.9. In the case of A2C A15G, the self-cleavage stood at 0.69. On to A2C A15U, for which the self-cleavage worked out at 0.5. Under U1G U69A stands 0.65. Take U1A G33A: the self-cleavage is 0.28. As for U1C G70U, the self-cleavage turned out to be 0.32. Take U1C G70C: the self-cleavage was 0.35. For U1C G73U, the self-cleavage came out at 1.08. As to A2G A5G, the self-cleavage is 0.73.

A2G A5U: the self-cleavage was found to be 0.8. Regarding A2G A5C, the self-cleavage turned out to be 0.94. Consider U1G A56G, for which the self-cleavage is 0.92. Take U1C A21U: the self-cleavage turned out to be 0.3.

Regarding U1C A21G, the self-cleavage came out at 0.24.

With U1C A21C, the self-cleavage came to 0.35. Turning to U1A A56G, the self-cleavage turned out to be 0.71. In the case of U1A A56U, the self-cleavage turned out to be 0.61. In the case of U1C A35G, the self-cleavage was determined as 1.24. As for U1C A35U, the self-cleavage came to 0.33. For the variant U1C A35C, the self-cleavage is 0.71. Turning to U1A U66C, the self-cleavage turned out to be 0.4. In the case of U1A U66A, the self-cleavage came to 0.42. The value for U1C G16A was 0.08. For the variant U1A U74A, the self-cleavage was 1.25. As to U1A U74C, the self-cleavage worked out at 1.18. Under U1C C50A stands 0.61.

For U1C C23U, the self-cleavage stood at 0.47. For U1C C23G, the self-cleavage was 0.42.

U1C C23A: the self-cleavage is 0.22. Under U1A C27A stands 0.22; under A2C A35G, 1.24; under U1C A77G, 0.91. As to U1C A77U, the self-cleavage stood at 0.97. In the case of U1C U51A, the self-cleavage is 0.8.

U1C U51C: the self-cleavage amounted to 0.7. As for U1C U51G, the self-cleavage is 0.97. For U1C A65U, the self-cleavage is 0.31.

As to U1C A65G, the self-cleavage was 0.42. The value for U1A C32U was 0.3; that for U1A C32G was 0.09. With U1C C29A, the self-cleavage worked out at 0.32.

Turning to U1C C29U, the self-cleavage worked out at 0.33.

As to U1C A75G, the self-cleavage was determined as 0.79. As to U1C A75U, the self-cleavage is 1.05.

For U1G, the self-cleavage turned out to be 1.01. As to U1A, the self-cleavage stood at 0.98. U1C: the self-cleavage came out at 0.84. For U1A G52A, the self-cleavage is 1.1. Under U1A U25A stands 0.34; under U1A U25C, 0.41.

For the variant U1A G36C, the self-cleavage amounted to 0.09. The value for U1A G36A was 0.29; that for U1A G10A was 0.25; that for U1A G10C was 0.36.

For U1C G63A, the self-cleavage is 0.84. The value for U1C G42A was 0.45; that for U1A U26A was 1.02.

In the case of U1A U26C, the self-cleavage came to 0.47. As for A2C C23U, the self-cleavage came to 0.25.

As for U1A A2G, the self-cleavage is 0.87. On to U1A A2U, for which the self-cleavage worked out at 1.09. Under U1G C38A stands 0.48; under A2C, 0.91; under A2G, 0.7.

On to U1C A28G, for which the self-cleavage was found to be 0.55. The value for U1C A28U was 0.67; that for U1G A57C was 0.37. For the variant U1A C12G, the self-cleavage worked out at 0.43.

In the case of U1A C12U, the self-cleavage amounted to 1.2. U1A C12A: the self-cleavage was found to be 1.14. Regarding U1A G8A, the self-cleavage was 0.19. Consider U1A C11G, for which the self-cleavage was 0.49.

In the case of U1A C11U, the self-cleavage is 0.46.

As for U1A A57G, the self-cleavage amounted to 0.77. In the case of U1A G6A, the self-cleavage worked out at 0.27. Consider U1A U76C, for which the self-cleavage is 1.04.

With U1A A65G, the self-cleavage is 0.48. Under U1A A65C stands 0.12. For the variant U1G A18G, the self-cleavage is 0.61. U1C A57G: the self-cleavage amounted to 0.85. With U1C G8U, the self-cleavage turned out to be 0.39. For the variant U1C G8A, the self-cleavage is 0.34. Under A2G A18C stands 0.43; under A2G A18G, 0.48; under U1A G73U, 1.44.

With U1A G73A, the self-cleavage turned out to be 1.21. The value for U1G U48C was 0.79; that for A2C U67C was 0.36; that for U1A C23U was 0.22. Turning to U1A C23G, the self-cleavage was 0.1.

With U1G A35G, the self-cleavage was found to be 1.25. In the case of U1C U54G, the self-cleavage stood at 0.67.

In the case of U1C U54A, the self-cleavage worked out at 1.03.

For the variant U1C U54C, the self-cleavage was 0.68. The value for U1C U74A was 1.21. Under U1C U74C stands 1.21; under U1C U74G, 1.19.

Take U1A U49C: the self-cleavage was determined as 0.52. With U1A U49A, the self-cleavage came to 0.58. Under U1G A5U stands 0.98. On to U1A A15G, for which the self-cleavage stood at 0.72.

U1A A15U: the self-cleavage is 0.69. With A2C U31C, the self-cleavage worked out at 0.63.

As to U1C U58C, the self-cleavage was 0.63. On to U1C U58A, for which the self-cleavage stood at 0.46.

For the variant A2G A3C, the self-cleavage was found to be 0.89.

Regarding A2G A3G, the self-cleavage amounted to 1.01. Take U1C A20G: the self-cleavage turned out to be 0.59. In the case of U1C A20U, the self-cleavage came to 0.29. On to U1C C71U, for which the self-cleavage stood at 0.54. Turning to U1C A56U, the self-cleavage stood at 0.52. Consider U1C A56G, for which the self-cleavage worked out at 0.73.

Regarding U1G U80A, the self-cleavage came to 1.08. Regarding U1A C37G, the self-cleavage stood at 1.04. Take U1A C37A: the self-cleavage was determined as 0.31.

Regarding A2C U76C, the self-cleavage stood at 1.02. For U1C G10A, the self-cleavage turned out to be 0.23. Regarding U1C G10C, the self-cleavage was determined as 0.17. For U1C C14U, the self-cleavage was 1.07. On to A2C U48C, for which the self-cleavage came to 0.71. Under U1C U25A stands 0.37; under U1C U25G, 0.22. Turning to U1C U25C, the self-cleavage stood at 0.32. For the variant U1G A64C, the self-cleavage turned out to be 0.26. As for U1A G22A, the self-cleavage stood at 0.23. On to U1C C62U, for which the self-cleavage stood at 0.32.

As for U1A A45U, the self-cleavage amounted to 0.41. The value for U1A A45G was 0.75; that for U1C U60C was 0.39; that for U1C U60A was 0.42.

Turning to U1C U72C, the self-cleavage is 0.82. Consider U1C U72A, for which the self-cleavage was 0.66. With U1C U72G, the self-cleavage was 1. For U1A C59U, the self-cleavage is 0.46. With U1C G52A, the self-cleavage was determined as 1. Regarding U1A G63A, the self-cleavage amounted to 0.89. U1G C23U: the self-cleavage was 0.49.

Regarding A2C G61A, the self-cleavage was determined as 0.48. Consider A2C A77G, for which the self-cleavage was 1.01. For U1C C27U, the self-cleavage is 0.38. With U1C U31A, the self-cleavage was 0.43. The value for U1C U31C was 0.7; that for U1C C32A was 0.26; that for U1A U51A was 0.95.

U1A U51C: the self-cleavage turned out to be 0.92. Under U1A C14A stands 1.17; under U1A U48C, 0.63; under U1G A28G, 0.55. On to U1G A28C, for which the self-cleavage was determined as 0.6.

The record behind these values is the RNAGym collection of RNA variant scans (doi:10.1093/nar/gkz1192).
